This experiment deals with ParE30-ParC55 fusion protein (fused ParE-ParC cleavage core of S. pneumoniae topo IV) (Streptococcus pneumoniae). Put plainly: crystal structure; ParE30-ParC55 fusion protein (4.5 mg/ml) mixed with 18-mer V-site or E-site duplex DNA at 1:1.2 molar ratio, 2 mM delafloxacin, 10 mM MgCl2; sitting-drop vapour diffusion, 50 mM sodium cacodylate, 62.5 mM KCl, 7.5 mM MgCl2, 2.5% Tacsimate, 5.5–7% isopropanol, pH 6.5, 301 K; V18 with PEGylated graphene nucleant 2.0 Å, V18 and E18 without 2.4 Å.

With “ParE30-ParC55 fusion protein (fused ParE-ParC cleavage core of S. pneumoniae topo IV) (enzyme)”, the stoichiometry N (as a rule, a count of units in the complex or per binding partner) was found to be 2.

(Values after article PMC12217528, “Structural basis of topoisomerase targeting by delafloxacin” (Nature Communications, 2025).)
